Results on 1 molecule are retold here after PMC7515705.

In the experiment the target is T1, YBEY-3 × FLAG (human), P58557.
T1 chain: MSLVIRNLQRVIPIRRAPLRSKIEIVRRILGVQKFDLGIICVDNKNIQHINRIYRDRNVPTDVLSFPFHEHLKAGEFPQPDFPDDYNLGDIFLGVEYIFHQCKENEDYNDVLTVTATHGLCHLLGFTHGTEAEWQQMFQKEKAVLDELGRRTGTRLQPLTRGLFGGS
Kind of experiment: affinity purification with mass spectrometry; α-FLAG antibody and protein A-sepharose on mitochondrial lysates (0.5% n-dodecyl-β-D-maltoside, 20 mM Tris-HCl pH 7.5, 150 mM KCl, 4°C) of SAL001 cells expressing YBEY-3 × FLAG; parental Flp-In T-REx 293 as control; LC-MS/MS, spectral counts; YBEY:p32 stoichiometry from spectral abundance factors. As to conditions: remark: other sources report otherwise.

By stoichiometry N is commonly meant the number of molecules, sites or subunits per partner or assembly.

B1: p32/C1QBP, endogenous, Q07021 74-282 (natural protein)
chain: LHTDGDKAFVDFLSDEIKEERKIQKHKTLPKMSGGWELELNGTEAKLVRKVAGEKITVTFNINNSIPPTFDGEEEPSQGQKVEEQEPELTSTPNFVVEVIKNDDGKKALVLDCHYPEDEVGQEDEAESDIFSIREVSFQSTGESEWKDTNYTLNTDSLDWALYDHLMDFLADRGVDNTFADELVELSTALEHQEYITFLEDLKSFVKSQ
As for B1, the stoichiometry N came out at 1.
